Data: the nanobody polyreactivity screen of Harvey et al. (2022)

Test: yeast display, Sf9 membrane polyspecificity reagent, FACS + sequencing; frameworks hold sequencing errors
In short: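 A synthetic nanobody library was expressed on Saccharomyces cerevisiae BJ5465 by galactose induction for 36–48 hours. The library was stained for 1 hour at 4 °C with 10% biotinylated, detergent-solubilized Sf9 membrane reagent and enriched with streptavidin microbeads before FACS. Low and high (top ~1%) gates were set on anti-HA fluorescence for expression and streptavidin fluorescence for reagent binding, and each polyreactivity label reflects the gate of origin.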

QVQLVESGGGLVQAGGSLRLSCAASGLTFIDYAMGWYRQAPGKERELVAAITKSGGGTYYADSVKGRFTISRDNAKNTVYLQMNSLKPEDTAVYYCAAVYRTRLYYYWGQGTQVTVSS
polyreactivity (PSR sort gate): high polyreactivity

LVQLVESGGGLVQAGGSLRLSCAASGRTFPGYAMGGYSQAPGKERELVASINFRGGGTYADSVKGRFTISRDNAKNTVYLLMNSLKPEDTAVYYCAAEYFWGKRRFGYWGQGTQVTVSS
polyreactivity (PSR sort gate): high polyreactivity

QVQLVESGGGLVQAGGSLRLSCAASGRTFDVYTMGWYRHAAGKERELVAAITARGARTYYADSVKGRFTISRDNAKNTVYLQMNSLKPEDTAVYYCAAKSYRHSLYDYWGQGTQVTVSS
polyreactivity (PSR sort gate): high polyreactivity

QVQLVESGGGLVQAGGSLRLSCAASGSIFGYYAMGWYRQAPGKERELVAAITYSGGRTYYADSVKGRFTISRDNAKNTVYLQMNSLKPEDTAVYYCARAPPGDRFVRYDYWGQGTQVTVSS
polyreactivity (PSR sort gate): high polyreactivity

QVQLVESGGGLVQAGGSLRLSCAASGITFWYYAMGWYRQAPGKERELVAAITGGDSTNYADSVKGRFTISRDNAKNTVYLQMNSLKPEDTAVYYCNAEGSYEGYDDYWGHGTQVTVSS
polyreactivity (PSR sort gate): high polyreactivity

QVQLVESGGGLVQAGGSLRLSCADSGFTFYTYTMGWYRPAPGKERELVAVISRSGGSTYYADSVKGRFTISRDNAKNTVYLQMNSVKPEDTAVYYCNAGYWRFIDSYDYWGQGTQVTVSS
polyreactivity (PSR sort gate): high polyreactivity

QVQLVESGGGLVQAGGSLRLSCAASGRIIYGNTMGWYRQAPGKEREFVATITRSGGSTYYADSVKGRFTISRDNAKNTVYLQMNSLKPEDTAVYYCNAQPSVYYGRWGLNYVYWGQGTQVTVSS
polyreactivity (PSR sort gate): high polyreactivity

QVQLVESGGGLVQAGGSLRLSCAASGTFAVYTMGWYRQAPGKERELVAAITKSGGSTYYADSVKGRFTISRDNAKNTVYLQMNRLKPEDTAVYYCATRDSPRTKNGYYYWGQGTQVTVSS
polyreactivity (PSR sort gate): high polyreactivity

QLQLVKSWGGLVQAGGSLRLSSAASGLTFELYDMGWYRQAPGKERELVAAIDWSATRTYYADSVKGRFTISRDNAKNTVYLQMNSLKPEDTEVYYCNAEAVYEYWIYDYWGQGTQVTVSS
polyreactivity (PSR sort gate): high polyreactivity

QVQLVESGGGLVQAGGSLRLSCAASGFTFYRNAMGWYRQAPGKERELVAGISKRGGSTYYADSVKGRFTISRDNAKNTVYLQMNSLKPEDTAVYYCAAYKQYRFYRYDYWGQGTQVTVSS
polyreactivity (PSR sort gate): high polyreactivity

QVQLVESGGGLVQAGGSLRLSCAASGRTFWYYAMGWYRQAPGKERELVAAISYSGDGTYYADSVKGRVTISRDNAKNTVYLPMHSLKPEDTAVYYCAAEWYEPTLPTAWSEYEYWGQGTQVTVSS
polyreactivity (PSR sort gate): high polyreactivity

QVQRLESVGRLVQAGGSLRLSSAPSGIIFRGYVMGWYIQARGKESELVAAITSSTGSTYYADSVKGRFTISRENAKNTGYLLMNILKPEDTAVYYCNVDYYVPNDGYEYWGQGTQVTVSS
polyreactivity (PSR sort gate): low polyreactivity

QVQLVQSGGGLVQAGGSLRLSCAPSGSISTPYTMGWYRQAPGKERELVAAISWIGDTTSYADSVKGRYTISRDNAKNTVYLQMKSLKPEDTAVYYCDADYLWYNYAGQVDQDYDYWGQGTQVTVSS
polyreactivity (PSR sort gate): low polyreactivity

QVQLVESGGGLVQAGGSLRLSCAASGLTFAKNAMGWYRQAPGKERELVAAITTGGSTYYADSVKGRFTISRDNAKNTVYLQMNSLKPEDTAVYYCAAQILVRHIPYYYWGQGTQVTVSS
polyreactivity (PSR sort gate): high polyreactivity

QVQLVESGGGLVQAGGSLRLSCAASGFTFSTYAMGWYRQAPGKERELVAGITRRGGSTYYADSVKGRFTISRDNAKNTVYLQMNSLKPEDTAVYYCARDLLRVSSSRYNSWGQGTQVTVSS
polyreactivity (PSR sort gate): high polyreactivity

QVQLVESGGGLVQAGGSLRLSCASSGFTFGWYDMGWYRQAPGKERELVASISWSGSSTYYADSVKGRFTISRDNAKNTVYLQLNSLKPEDTAVYYCNAVSVDYVNWYWYDYWGQGTQVTVSS
polyreactivity (PSR sort gate): high polyreactivity

QVHLVESGGGLVQAGGSLRLSCASYGSTLELNAMGWYRQAPGKERELVAAITSSGGRTYYADSVKGRFTISRDNAKNTVYLQMKSLKPEDTAVYYCAAEPGQQRVVDRYDYWGQGTQVTVSS
polyreactivity (PSR sort gate): low polyreactivity

QVQLVESGGGLVQAGGSLRLSCAASGSIFRGNAMGWYRQAPVKERELVAGINRAGSTKYADSVKGRFTISRDNAKNTVYLQMNSLKPEDTAVYYCAAVRYERGLWSDYWGQGTQVTVSS
polyreactivity (PSR sort gate): high polyreactivity

QVQLVESGGGLVQAGGSLRLSCAASGSTFLVYAMGWYRQAPGKERELVAVITRGVRTFYADSVKGRFTFSRDNAKNTVYLQMNSLKPEDTAVYYCAKERYNANYDTSLYDYWGQGTQVTVSS
polyreactivity (PSR sort gate): low polyreactivity

QVQLVESGGGLVQAGGSLRLSCAASGSIFKYNTMGWYRQAPGKERELVAAISSGGRTYYADSVKGRFTISRDNAKNSVYLQMNSLKPEDTAVYYCAARWSFFKTTHRNNYWGQGTQVTVSS
polyreactivity (PSR sort gate): high polyreactivity

QVQLVESGGGLVQAGGSLRLSCAASGSTFVSYAMGWSRQAPGKERELVAAISISDSSTYYADSVKGRFTISRDNAKNTVFLQMNSLKPEDTAVYYCNRYDYWGQGTQVTVSS
polyreactivity (PSR sort gate): low polyreactivity

QVQLVESGGGLVQAGGSLRLSCAASGSIFFYYAMGWYRQAPGKERELVAAIDFNGGNTYYADSVKGRFTISRDNAKNTVYLQMNSLKPEDTAVYYCAAEWEGTYTTVPDEFNYWGQGTQVTVSS
polyreactivity (PSR sort gate): high polyreactivity

QVQLVESGGGLVQAGGSLRLSCAASGRTITRNAMGWYRQAPGKERELVAAITTTGGSTYYADYVKGRFTISRDNAKNTVYLQMNSLKPEDNAVYYCNADWVGPFRRATNITTYFGYDYWGQGTQVTVSS
polyreactivity (PSR sort gate): low polyreactivity

QVQLVESGGGLVQAGGSLRLSCAASGRTFPYYAMGWYRQAPGKERELVAAISSSGGSTYYADSVKGRFTISRDNAKNTVYLQMNSLKPEDTAVYYCAATRGWLHSFARDDHDYWGQGTQVTVSS
polyreactivity (PSR sort gate): high polyreactivity

QVQLVESGGGLVQAGGSLRLSCAASGRIFTGNAMGWYRQAPGKERELVAAISSRGGRTYYADSVKGRFTISRDNAKNTVYLQMNSLKPEDTAVYYCNAVAVAASRAYSWYDYWGQGTQVTVSS
polyreactivity (PSR sort gate): high polyreactivity

QVQLVESGGGLVQAGGSLRLSCAASGIIFDDNAMGGYRQAPGKERELVAAITYSGGSTYYADSVKGRFTISRDKAKNTVYLQMNSLKPEDTAVYYCAADNRPIVGSYYYWGQGTQVTVSS
polyreactivity (PSR sort gate): low polyreactivity

QVHLVESGGGLLQAGGSLRLSSAASGSTFPFNAMGWYRPAPGKERELVAAIDDNGGTTYYADSVKGRFTISRDNAKNTFYLQMISLKPEDPAVYYCAAEVDTVRDCVQGMDYCGQGTQVTVSS
polyreactivity (PSR sort gate): low polyreactivity

QVQLVESGGGLVQAGGSLRLSCAASGLTFVTNAMGWYRQAPGKERELVAGISWSDGSTYYADSVKGRFTISRDNAKNTVYLQMNSVKPEDSAVYYCNAGVDLHYGYITYGVYGYDYWGQGTQVTVSS
polyreactivity (PSR sort gate): low polyreactivity

QVQLVESGGGLVQAGGSLLLSCAASGSTFIWNAMGWYRQAHGKERELVAAISSGGSTYYADSVKGRFTISRDNAKNTVYLQMNSLKPEDTAVYYCAAEYVYNVWEQRYAVYSTDDYWGQGTQVTVSS
polyreactivity (PSR sort gate): low polyreactivity

QVQLVDSGGGLVQAGGSLRLSCAASGSILGGNAMGWYRQAPGKERELVAAITFSGGGTYYADSVKGRFTISRDHAKNTVYLQMNSLKPEDTAVYYCAADKDGYTYEFDYWGQGTQVTVSS
polyreactivity (PSR sort gate): low polyreactivity

QVQLVESGGGLVQAGGSLRLSCAASGSIFHYNAMGWYIQAPGKERELVASISSGGRTYYADSVKGRFTISRDNAKNTVYLQMNSLKPEDTAVYYCAAENFWQTKEYDYWGQGTQVTVSS
polyreactivity (PSR sort gate): low polyreactivity
